Source: the nanobody polyreactivity screen of Harvey et al. (2022)

experiment: yeast display, Sf9 membrane polyspecificity reagent, FACS + sequencing; frameworks hold sequencing errors
Procedure, shortened: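 Synthetic nanobody libraries on Saccharomyces cerevisiae BJ5465 were galactose-induced for 36–48 hours, stained 1 hour at 4 °C with 10% biotinylated, detergent-solubilized Sf9 membrane reagent and enriched on streptavidin microbeads. FACS then separated cells into low and high (top ~1%) gates by anti-HA (expression) and streptavidin (reagent binding) fluorescence. Genes were colony-PCR amplified, MiSeq 2 × 250 sequenced and CDR-length filtered. A clone's polyreactivity label is that of its gate of origin.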

Row | Sequence | polyreactivity (PSR sort gate)
1 | QVQLVESGGGLVQAGGSLRLSCAASGLIFKFYAMGWYRQAPGKERELVARISSCGGSTYYADSVKGRFTMSRDNAKNTVYLQMNSLKPEDTAVYYCAAGDYYGDRYARSSIFSYYYWGQGTQVTVSS | high polyreactivity
2 | QVQLVESGGGLVQAGGSLRLSCAASGRIFGLNTMGRYRQAPGKERELVAAITSSAGSTYYADSVKGRCTISRDNAKNTVYLQMNSLKPEDTAVYYSAARVSYLGSFTSQRYYYWGLGTQVTVSS | high polyreactivity
3 | QVQLQDSGGGLVQAGGSLRLSCAASGTIVTARFMGWYRQAPGKERELVATITDGGNTNHADSVKGRFTISRDNAKNTVYLQMNSLKPEDAAVYYCAAGEVDNDTLLYWGQGSQVTVSS | low polyreactivity
4 | QVQLVESGGGLVQAGGSLRLSCAASGFNFNKNAMGWYIQAPGKERELVASITASGTTTYADSVKGRFTISRDNAKNTVYLQMNSLKPEDTAVYYCAVRTRIWGFYYWGQGTQVTVSS | high polyreactivity
5 | QDQLVESGGGLVQAGGSLRLSCAASGRIFDTNAMGRYRQAPGKERELVATNTRSAGRTYYADSVKGRFTISRDNAKIKVFLQMNILKPEDTAVYFCNADWGPTYEIYDSWGQGTQVTVSS | low polyreactivity
6 | QVQLVESGGGLVQAGGSLRLSCAASGSTYGGYTMGWYRPAPGKVWELVAAIRLSGVSTYYADSVKGRFTISRDNAKNTVYLQMNSLKPEDTAVYYCAARGWYRYGSVYYIGDYWGQGTQVTVSS | high polyreactivity
7 | QVQLVESGGGLVQAGGSLRLSCAASGFTFYYYAMGWYRQAPGTERELVASITSTDSTTYADSVKGRFTISRDNAKNTVYLQMNSLKPEDTAVYYFNRLYYHWYGGLDYWGHGTQVTVSS | high polyreactivity
8 | QVQLVESGGGLVQAGGSLRLSCAASGFTFYAYTMGWYRQAPGKERELVAAIRTGSSTYYADSVKGRFTISRDNAKITVYLQMNSLKPEDTAVYYCDAPRWRRPYRYDYWGQGTQVTVSS | high polyreactivity
9 | QVQLVESGGGLVQAGGSLLLSCAASGFTFYGYVMGWYRQAPGKERELVAGITWRGGSTYYADSVKGRFTISRDNAKNTVYLQMNSLKPEDTAVYYCAAKSFRRGTFDYWGQGTQVTVSS | high polyreactivity
10 | QVQLVESGGGLVQAGGSLRLSCAASGRTFRPYAMGWYRQAPGKERELVAAISSRGSSTYYADSVKGRFTISRDNAKNNVYLQMNSLKPEDTAVYYCAARSYWGGLRYDYWGQGTQVTVSS | high polyreactivity
11 | QVQLVESGGCLVQAGGSLRLSCAASGITFRSYTMGWYRQAPGQESELVAAISYSAGSTYYADSVKGRFTISRDNAKNTVYLQMNSLKPEDTAVYYCAARPRLVVLVIRFYYWGQGTQVTVSS | high polyreactivity
12 | QVQLQESGDGLVQALGSLRLSCAASGYISGYYYMGWYRQAPGKERELVAGIDAFGSSTNYADCVKGRFTISRDNAKNTVYLQMNSPKPVDTAVYYCAAEYDDWDYHWYWGEGTQVTVSS | low polyreactivity
13 | QVQLVESGGGLVQAGGSLRLSCAASGRTFNWNAMGWYRQAPGKERELVAAITSGGSTYNADSVKGLFTISRDNAKNTVYLQMNSLKPEDTAVYYCAGRINFYRSKYYYWGQGTQVTVSS | high polyreactivity
14 | QVQLVESGGGLVQAGGSLRLSCAASGFTFVPHTMGWYRQAPGKERELVAGINYGVGSTYYADSVKGRFTISRDNAMNTVYLQMNSLKPEDTAVYYCAADIVYLYGLLYYWGQGTQVTVSS | low polyreactivity
15 | QVQHVESGGGLVQAGGSLRLSCAASGSIFVRNAMGWYRQAPGKEREFVAAISRSGDSTNYADSVKGRFTISRDNAKNTVYLQMNSLKPEETAVYYCAVGYRYLKWVDYWGQGTQVTVSS | high polyreactivity
16 | QVQLVESGGGLVQAGGSLRLSCASSGGTFSTYAMGWYRQAPGKERELVAAISSTGGSTYYADSVKGRFTISGDNAKNTVYLQMNSLKPEDTAVYYCAAYYSRGWLLYWDEMYFWGQGTQVTVSS | high polyreactivity
17 | QVQLVESAGGLVQAGGSLRLSCDASGRIIRGNAMGWYRQAPGKEREMVAAINRSGGSTYYADSVKGRFTISRDNAKNTVYLQMKSLKQEDTAVYYCIAYPASRKTGWSSGYYYWGQGTQVTVSS | high polyreactivity
18 | QVQLVESGGGLVQAGGSLRLSCAASGRSFTSNTMGWYRPAPGKERELVAAITSSGGSMYYADSVKGRFTISRDNANNTVYLQMNSLKPEDTAVYYCAADTIGYHYWYDYWGQGTQVTVSS | low polyreactivity
19 | QVQLVESGGGLVQAGGSLRLSCAASGIILYPYFMGWYIQAPGKERELVAAISYSGGSTYYADSVKGRFTISGDNAKNTVYLQMNSLKPEDTAVYYCAAVPVTSQTKYGYWGQGTQVTVSS | high polyreactivity
20 | QVQLVESGGGLVQAGGRLRISCAASGFTFTRYAMRWYRQAPGKERELVAAISWSGGSTYYADSVKGRFTISRDNAKNTVSFQMNSLKPEDTAVYYCAKRGTVRQGGYGFWGQGTQVSVSS | high polyreactivity
21 | QVQLVESGGGLVQAGGSLRLSCAASGFIFGFYAMGWYRQAPGKERELVAAITSDGGTYYADSVKGRFTISRDNAKNTVYLQMNSLKPEDTAVYYCAADVLYEVFSWYVGYDYWGQGTQVTVSS | low polyreactivity
22 | QVQLVESGGGLVQAGGSLRLSCAASGRIFSTYVMGWYRQAPGKERELVAAIRNRGGSTYYADSVKGRFTISRDNAKNTVYLQMNSLKPEDTAVYYCAAEYSYRYRVSMDYWGQGTQVTVSS | high polyreactivity

Row | Sequence | polyreactivity (PSR sort gate)
23 | QVQLVESGGGLVQAGGSLRLSCAASGRTFFWNAMGWYRQAPGTERELVAAITWSGGSTYYADSVKGRFTLSRDNAKNTVYLQMNSLKPEDTAVYYCAAVVSEYVWRYEYWGQGTQVTVSS | low polyreactivity
24 | QVQLVESGGGLVQAGGSLRLSCAASGFIFVPYAMGWYRQAPGKERELVAAIDTSGGNTYADSVKGRFTISRDNAKNTVYLQMNSLKPEDTAVYYCAARYQWDWRDYYYWGQGTQVTVSS | low polyreactivity
25 | QVQLVESGGGLVQAGGSLRLSCAASGRTFVYNAMGWSRQAPGKERELVAAITSGGSTYYADSVKGRFTISRDNAKNTVYLQMNSLKPEDTAVYYCAAYKRGYYWGQGTQVTVSS | high polyreactivity
26 | QVQLVESGGGLVQAGGSLRLSCAASGRIFWYYAVGWYRQAPGKERELVARISSSGGSTYYADSVKGRFTISRDNANNTVYLQMNSLKPEDTAVYYCAKERYSGSSRYPMDYWGQGTQVTVSS | high polyreactivity
27 | QVQIVESGGGLVQAGGSLRLSCAASGSTFVVYAMGWYRQAPGKERELVAAISYRAGITYYADSVKGRFTISRDNAKNTVYLQMNSLKPEDTAVYYCAADRYYGVGSGYWGQGTQVTVSS | high polyreactivity
28 | QVQLVESGGGLVQAGGSLRLSCAASGRTFYRNAMGWYRQARGKERELVAAISSRGGSTYYADSVKGRFTISRDNAKNTVYLQMNSLKPEDTAVYYCAARYLYLWADYEYGYWGQGTQVTVSS | high polyreactivity
29 | QVQLVESGGGLVQAGGSLRLSSADSGSIFVYNDMGWYRQAPGKERELVARIDWSGDRTYADSVKGRFTISRDNAKNTVYLQMNSLKPEDTAVYYCNADEWRWDEIIPYAVDYCGQGTQVTVSS | low polyreactivity
30 | QVQLVESGGGLVQAGGSLRLSCAASGFTFGYNAMGWYRQAPGKEREFVAAISISTGRTFYADSVKGRFTISRDNAKNTVYLQMNSLKPEDTAFYYCAARGYYPTNVGKYNYWGQGTQVTVSS | high polyreactivity
31 | QVQLVESGGGLVQAGGSLRLSCAASGGIFSYYAMGWYRQAPGKEREFVAAIDWGGGSTYYADSVKGRFTISRDNAKNTVYLQMNSLKPEDTAVYYCAAEIYPIGWDDYDYWGQGTQVTVSS | low polyreactivity
32 | QVQLVESGGGLVQAGGSLRLSCAASGLTFLYYSMGWYRQAPGKERELVAAISTRGGSTYYADSVKGRFTISRDNAKNTVYLQMNSLKPEDTAVYYCNAKLIVTPGRGDYWGQGTQVSVSS | high polyreactivity
33 | QVQLVESGGGLVQAGGSLRLSCAASGFTFSWYAMGWYRQAPGKERELVAAINADGGTTYYADSVKGRFTISRDNAKNTVYLQMNRLKPEDTAVYYCAAELSVDKYDYWGQGTQVTVSS | low polyreactivity
34 | QVQLVESGGGLVQAGGSLRLSCAASGGIFRFNAMAWYRQAPGKERELVAAINRGGSTDYADSVKGRFTSSRDNAKNTVYLQMNSLKPEDTAVYYCAADYEYRPKTRDGYYWGQGTQVTVSS | low polyreactivity
35 | QVQLVESGGGLVQAGGSLRLSCAASGFTFKYTDMGWYRQAPGKERELVAAINWRGGSTYYADSLKGRFTISRDNAKNTVYLQMNSLKPEDTAFYYCNLVYRPSRYDYWGQGTQVTVSS | high polyreactivity
36 | QVQLVESGRGLVQAGGSLRLSCAASGYIFDRYAMGWSRQAPGKERELVAAISGRGGSTYYADSVKGRFTISRDNAKNTVYLQMNSLNPEDTAVYYCARDVYVRNGQRARYDSWGQGTQVTVSS | high polyreactivity
37 | QVQLVESGGGLVQAGGSLRLSCAASGSISGVYAMGWYRQAAGKDRALVAASSGGSGRTYYADSVKGRFTISRDNAKNTVYLQMISLKPEDTAVYYCAKTVLYSSYRKYDYWGQGSQVTVSS | high polyreactivity
38 | QVQLVESGGGLVQAGGSLRLSCAASGRIFVVYAMGGYRQAPGKERDLVASISRGGRTYYADSVKGRFTISRDNAKNTVYLQMNSLKPEDTAVYYCAVVVYLKNRDLFDYWGQGTQVTVSS | low polyreactivity
39 | QVQLVESGGRLVQAGGSLRLSCAASGRTFKKYAMGWYRQAPGKERELVAAITGSGGSTYYADSVKGRFTISRDNAKNTVYLQMNSLKPEDTAVYYCAAYAYGVWHSQDGGNFWGQGTQVTVSS | low polyreactivity
40 | QVQLVESGGGFVQAGGSLRLSCAASGSTFHGYAMGWYRQEPGKERELVAAITSSGGSTYYADSVKGRFTISRDNAKNTVYLLMNILNPEVTEVYYCAARRYGWGRAQSSASYDHWGQGTQVTVSS | high polyreactivity
41 | QVQLVESGGGIVQAGGSLRLSCADSGSTFRDNAMGLYRQAPGKERELVAAITVIDGTTYYADSVKGRFTISRDNAKNTVYLQMNSLKPEDTAVYYCAADTIWYEYYYWGQGTQVTVSS | low polyreactivity
42 | QVQLVESGGGLVQEGGSLRLSCAASGSIFLQYAMGWYRQAPGKERELVAGISLRGCSTYYADSVKGRFTISRDNAKNTVYVQLNSLKPEDTAVYYCAADVIVTVETHTSGPSFTEYDYWGQGTQVTVSS | low polyreactivity
43 | QVQLVESGGGLVQAGGSLLISCAASGSIFTCYAMGWYRQAPGKERELVAASTRGGSTYADSEKGRFTISRDNAKNTVYLQRKSLIPDVTGVYYCNAVYGVYDFKYWGQGTQVSVSS | low polyreactivity
